Patent US12577571B2, “Mutant DNase1L3 with improved serum half-life” (Texas Tech University System, priority 2019, dated 2026)

B1: PEGylated Dnase1L3: Purified Dnase1L3 conjugated to PEG (PEG-maleimide); band shifts from 36 kDa to 41 kDa (conjugate, UniProt Q13609 21-305, looked up)
Deoxyribonuclease gamma: MRICSFNVRSFGESKQEDKNAMDVIVKVIKRCDIILVMEIKDSNNRICPILMEKLNRNSRRGITYNYVISSRLGRNTYKEQYAFLYKEKLVSVKRSYHYHDYQDGDADVFSREPFVVWFQSPHTAVKDFVIIPLHTTPETSVKEIDELVEVYTDVKHRWKAENFIFMGDFNAGCSYVPKKAWKNIRLRTDPRFVWLIGDQEDTTVKKSTNCAYDRIVLRGQEIVSSVVPKSNSVFDFQKAYKLTEEEALDVSDHFPVEFKLQSSRAFTNSKKSVTLRKKTKSKRS
modifications: PEG-maleimide conjugate
notes: Purified Dnase1L3 conjugated to PEG (PEG-maleimide); band shifts from 36 kDa to 41 kDa
B2: Dnase1: DNase I protein of the background art; poorly digests chromatin DNA (protein, UniProt P24855 23-282, looked up)
Deoxyribonuclease-1: LKIAAFNIQTFGETKMSNATLVSYIVQILSRYDIALVQEVRDSHLTAVGKLLDNLNQDAPDTYHYVVSEPLGRNSYKERYLFVYRPDQVSAVDSYYYDDGCEPCGNDTFNREPAIVRFFSRFTEVREFAIVPLHAAPGDAVAEIDALYDVYLDVQEKWGLEDVMLMGDFNAGCSYVRPSQWSSIRLWTSPTFQWLIPDSADTTATPTHCAYDRIVVAGMLLRGAVVPDSALPFNFQAAYGLSDQLAQAISDHYPVEVMLK

Columns and labels:
plasmid DNA = test: Plasmid DNA degradation by Dnase1L3 (agarose gel); type: biochemical; conditions: increasing dilutions with 200 ng plasmid DNA, 30 min at 37° C., 200 mM Tris pH 7.4, 50 mM MgCl2, 20 mM CaCl2; 1% agarose gel
Source text: FIGS. 1A to 1E show the results from the modified Dnase1L3 of the present invention. […] (FIG. 1A) Dnase1L3 was affinity purified with Nickel NTA agarose, then cleaved with Tobacco Etch Virus protease TEV protease. Cleaved Dnase1L3 was further purified by anion exchange and then by size exclusion chromatography. Fractions from the final size exclusion purification were resolved by SDS-PAGE and Coomassie stained. Fractions 7-9 show purified Dnase1L3 at the expected 36 kDa size. Molecular weight in kDa is shown. (FIG. 1B) The indicated amounts of purified Dnase1L3 were resolved by SDS-PAGE, transferred to nitrocellulose and probed with anti-Dnase1L3 primary antibody, anti-rabbit HRP secondary antibody and developed with enhanced chemiluminescence. (FIG. 1C) Recombinant, […] mM Tris pH 7.4, 50 mM MgCl2, 20 mM CaCl2 with or without 100 μM Dnase1L3 inhibitors fmoc-D-cyclohexylalanine (FCA) or Pontacyl Violet 6R (PV). Remaining plasmid DNA resolved on a 1% agarose gel. # indicates non-degraded DNA (i.e. supercoiled, nicked and linear DNA). The absence of DNA indicates degradation. (FIG. 1D) Purified Dnase1L3 was conjugated to PEG. Unconjugated Dnase1L3, PEGylated Dnase1L3 (PEG-D1L3), or free PEG were resolved by SDS-PAGE and visualized with Coomassie Blue. The 36 kDa band has increased in size to 41 kDa, indicating successful PEGylation. Molecular weight in kDa is shown. […]

[1] = tested on: DNA present as chromatin or apoptotic bodies; conditions: background, Sisirak et al 2016, Napirei et al 2009, Wilber et al 2002; cited from earlier work

| Molecule | endonuclease activity (degradation of plasmid DNA) (plasmid DNA) | digestion of DNA present as chromatin or apoptotic bodies [1] |
| --- | --- | --- |
| B1 | potent endonuclease |  |
| B2 |  | poorly digests |
